Test results published in US8329186B2, “Treatment of inflammation using BST2 inhibitor” (Isu Abxis Co., Ltd, priority 2004, dated 2012).
Entries after “also recorded” stand apart in the source; their conditions may differ.

What was measured:
[1] = system: mouse model of asthma; assay: Ovalbumin-induced mouse model of asthma: infiltrating cells in bronchoalveolar lavage; assay type: in vivo; conditions: ovalbumin-sensitized mice
Protocol: A mouse model of asthma was prepared by sensitizing mice (C57B6, 8 weeks) with ovalbumin. In detail, mice were initially sensitized for five continuous days by intranasal injection of ovalbumin. After three weeks, mice were intranasally sensitized again with ovalbumin for five continuous days. One week after the secondary sensitization, mice were challenged intranasally with ovalbumin three times every 24 hrs to induce asthma. Herein, a Bst2 decoy was intravenously injected into mice 30 min before sensitization with ovalbumin, and was injected into mice 30 min before the first sensitization and the last injection of ovalbumin. Three days after the last injection, serum samples, lung tissues, and the like were collected from mice.
A mouse model of asthma was prepared as described in Example 8-1.
The effect of Bst2 decoy-Fc fusions on immune cell infiltration was assessed as described in Example 8-2. When ovalbumin-sensitized mice were treated with a Bst2 decoy, the total number of infiltrating cells was decreased and, especially, the number of neutrophils, eosinophils and lymphocytes except for macrophage was decreased in bronchoalveolar lavage (BAL) (FIG. 27).
A mouse model of asthma was prepared as described in Example 8-1. The effect of anti-Bst2/Damp1 antibodies on immune cell infiltration was assessed as described in Example 8-2. […]

[2] = system: OVA-induced atopic dermatitis; assay: OVA-induced atopic dermatitis model in mice; assay type: in vivo, BALB/c mice
Protocol: An experimental model of atopic dermatitis based on immunity against ovalbumin (OVA) was utilized to test Bst2 decoy for efficacy in atopic dermatitis. BALB/c mice were immunized at the beginning of weeks 1, 2, and 3 with intraperitoneal injections of OVA/ALUM. During week 4, an OVA-soaked patch was applied to the shaved backs of the animals. The patches were removed and 5 daily doses of Bst2 decoy was administered to the animal by intravenous injections of 10 mg/kg during week 5. OVA-soaked patches were applied again to the animals over week 6 and the animals were sacrificed for evaluation at the beginning of week 7 (FIG. 43).
Serum was prepared from blood sample collected from the sacrificed animals. OVA-specific IgE levels were determined by ELISA assays in which OVA was coated on the plate, OVA-specific immunoglobulin present in the serum samples allowed to blind, and IgE levels ascertained utilizing anti-IgE specific antibodies.

[3] = system: HUVECs and U937 cells; assay: Heterotypic aggregation/adhesion between IFN-γ-treated HUVECs and U937 cells; assay type: cell-based, human
Protocol: HUVECs (1−5×10^4 cells/ml) were seeded onto a 12-well cell culture plate. After one day, the medium was exchanged with a low-serum medium containing 0.5% FBS, and the cells were pretreated with interferon-gamma (IFN-γ; Calbiochem) in a final concentration 10 ng/ml for 24 hrs. Then, the pretreated HUVECs were co-cultured with U937 cells (2×10^6 cells/ml, 500 μl) at 37° C. for 4 hrs. The co-culture was washed with phosphate buffer three or four times, and the remaining cells were fixed with 4% paraformaldehyde and microscopically observed.
HUVECs were transfected with an expression vector for Bst2, treated with or without IFN-γ and then transfected with Bst2 siRNA. These cells were assessed for U937 cell adhesion.
HUVECs were cultured in 12-well plates with or without transfection of Bst2 siRNA or control siRNA for 6 hr, then treated with or without IFNγ for 24 hr. In some experiments, cells were treated with crude media containing Bst2 decoy or mouse anti-human ICAM1 antibodies. After a wash with PBS (phosphate buffered saline), U937 cells were resuspended in serum free medium at 2×10^6 cells/ml. Assays were initiated by the addition of 200 ul U937 cells to HUVEC for a final volume of 1 ml. After 4 hr at 37° C., unbound U937 cells were removed by washing plates three times with PBS. Bound cells were fixed by the addition of 4% paraformaldehyde in PBS, and the bound cells were counted under microscopy in different fields. All statistical analyses were performed in Excel and statistical significance were evaluated with Student's t test. In some experiments, RNA samples were obtained from HUVECs after treatment with IFNγ and/or siRNAs, and real-time polymerase chain reaction (RT-PCR) analyses were performed.

[4] = system: interleukin-2 (IL-2); assay: IL-2 expression in activated Jurkat cells (real-time RT-PCR); assay type: cell-based, human; conditions: 3-fold increased by Jurkat cell activation
Protocol: Intracellular expression levels of specific genes were analyzed by real-time quantitative RT-PCR using ABI Prism 7900HT (Applied Biosystems, Foster City, Calif.) and a SYBR-Green assay kit. Primers and probes used were designed using Primer Express software (Applied Biosystems).
10 ng of single-stranded cDNA was placed in a reaction tube and subjected to multiplex TaqMan PCR (50 μl) using the TaqMan Universal PCR Master Mix. The relative amount of target cDNA was calculated using the comparative cycle threshold (CT) method. PCR products were analyzed by agarose gel electrophoresis.
The relative levels of a specific gene A were expressed as a change compared to a control sample (untransfected cells). […] The above experiments were carried out to quantify the expression of the Bst2 gene and interleukin-2.
When Jurkat cells (5×10^5 cells/ml) were incubated with anti-CD3 monoclonal antibody (OKT3: 10 μg/ml, BD Pharmingen) at 4° C. for 20 min and then with anti-mouse immunoglobulin polyclonal antibody (25 μg/ml, Zymed) 37° C. for 1 hr, cell aggregation occurred, and the cells were activated and induced to produce interleukin-2 (IL-2) (FIGS. 10 and 11). […] IL-2 mRNA levels upon T cell activation were measured by real-time RT-PCR (Example 3). […]

B1: Bst2 decoy: soluble Bst2 protein fragment having the amino acid sequence of SEQ ID NO:1; extracellular region of human Bst2, six-histidine tag (protein)
chain: NSEACRDGLRAVMECRNVTHLLQQELTEAQKGFQDVEAQAATCNHTVMALMASLDAEKAQGQKKVEELEGEITTLNHKLQDASAEVERLRRENQVLSVRIADKKYYPSSQDHHHHHH
number of infiltrating cells in bronchoalveolar lavage (total, neutrophils, eosinophils, lymphocytes) [1]: remarkably decreased | formation of lesions after OVA-soaked patch ([2]; 10 mg/kg intravenous, 5 daily doses during week 5, end of week 6): little if any formation of lesions | serum OVA-specific IgE levels ([2]; ELISA): substantial reduction | inflammation in H&E stained skin sections ([2]; to a level similar to the negative control group): marked decrease in inflammation | binding of U937 cells to IFNγ-treated HUVECs ([3]; Bst2 decoy-containing medium, IFN-γ 10 ng/ml 24 hrs, co-culture 4 hrs): decreased binding | dose dependence of effect in heterotypic cell aggregation/adhesion assay ([3]; IFNγ-treated HUVECs and U937 cells): dependent on concentrations; also recorded: dose-dependent response | expression of IL-2 [4]: decreased again to the basal level
